Legend:
Type in all cases: binding
[1] = target: T1, mono- and di-methylated lysine peptides (H4K20, p53K382 and other histone and non-histone peptides) (Homo sapiens, UniProt Q9Y468); assay: Peptide pull-down assay with biotinylated peptides, Western blot
T1 construct: made in house; host or cells: E. coli
T1 sequence (Q9Y468 258-598): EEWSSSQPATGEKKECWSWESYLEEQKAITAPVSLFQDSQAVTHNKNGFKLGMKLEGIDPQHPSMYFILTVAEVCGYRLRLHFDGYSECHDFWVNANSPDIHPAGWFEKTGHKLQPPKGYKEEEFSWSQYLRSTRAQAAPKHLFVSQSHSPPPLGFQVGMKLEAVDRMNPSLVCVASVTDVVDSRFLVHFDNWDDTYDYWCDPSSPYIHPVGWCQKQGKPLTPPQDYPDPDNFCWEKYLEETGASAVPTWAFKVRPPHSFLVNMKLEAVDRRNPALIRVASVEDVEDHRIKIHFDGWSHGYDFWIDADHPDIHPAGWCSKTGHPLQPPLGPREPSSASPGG
Method: (§1) Peptide pull-down assays were performed as previously described (Shi et al. (2006) Nature 442, 96-99), using 1 μg protein and 1 μg peptide per condition in binding buffer (50 mM Tris pH 7.5, 150 mM NaCl, 0.05% NP-40). Peptide arrays were performed as previously described (Bua et al., supra).

[2] = tested on: mono- and di-methylated lysine peptides (H4K20, p53K382 and other histone and non-histone peptides); assay: as above; settings: GST fusions, FIG. 1B
Method: as §1

[3] = target: T2, over 100 distinct histone and non-histone peptides with different post-translational modifications (Homo sapiens, UniProt Q9Y468); assay: Peptide array probed with GST-3×MBT; settings: FIG. 1E
T2 construct: made in house; host or cells: E. coli
T2 sequence (Q9Y468 258-598): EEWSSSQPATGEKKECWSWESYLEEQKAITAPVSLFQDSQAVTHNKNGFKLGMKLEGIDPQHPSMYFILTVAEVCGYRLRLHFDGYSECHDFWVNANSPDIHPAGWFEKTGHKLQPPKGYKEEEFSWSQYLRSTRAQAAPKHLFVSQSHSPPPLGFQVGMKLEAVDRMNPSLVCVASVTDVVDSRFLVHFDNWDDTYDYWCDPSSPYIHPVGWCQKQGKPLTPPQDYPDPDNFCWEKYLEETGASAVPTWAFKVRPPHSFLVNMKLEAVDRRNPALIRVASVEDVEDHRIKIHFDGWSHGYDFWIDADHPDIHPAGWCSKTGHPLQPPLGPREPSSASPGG
Method: as §1

[4] = tested on: methylated proteins (H3, p53, RelA, SIRT1) in HeLa / 293T nuclear extract; assay: Protein pull-down from nuclear extract with GSH-Sepharose coupled domain, Western blot
Method: GSH-Sepharose coupled domain beads were generated for pull-down by incubating GSHSepharose resin with E. coli lysate containing sufficient 3×MBT for bead saturation. Bead-coupled 3×MBT was incubated with nuclear extract overnight and proteins that precipitated with the resin were analyzed by SDS-PAGE.
Recombinant GST-SIRT1 was expressed by baculoviral transduction of the Sf9 insect cell line as previously described (Levy et al. (2011) Nat. Immunol. 12, 29-36). A panel of enzymes was tested for ability to methylate recombinant SIRT1 using ^3H-SAM in in vitro methylation reactions (Kuo et al. (2011) Mol. Cell 44, 609-620). SIRT1K622R was generated by site-directed mutagenesis (Stratagene). For the pull-down experiment, 293T cells were transfected with a 10:1 enzyme:substrate DNA ratio. 150 μg of nuclear proteins were used for pull-downs with 3×MBT or 3×MBTD355N coupled GSH-Sepharose as described above.
GSH-Sepharose coupled domain beads were prepared for pull-down by expressing the domain in E. coli. Cells were lysed as described, and lysate was incubated overnight at 4° C. with GSH-Sepharose with a sufficient lysate-to-Sepharose ratio to result in Sepharose binding saturation. The GSH-Sepharose was then washed 3×5 minutes in binding buffer and resuspended in binding buffer to 50% slurry. 150 μg of nuclear proteins were incubated overnight at 4° C. with 15 μl 50% slurry of either 3×MBT or 3×MBTD355N coupled to GSH-Sepharose in binding buffer (total volume of about 150 μl). Beads were washed 3×5 minutes in 0.5 ml of binding buffer. Beads were boiled in 25 μl of 2× Laemmli buffer and supernatant was analyzed by SDS-PAGE and Western blotting.
For SETD6/RelA and SET8/p53 pull-down experiments, 293T cells were transfected with a 1:1 enzyme:substrate DNA ratio. 150 μg of nuclear proteins were incubated overnight at 4° C. with 15 μl 50% slurry of either 3×MBT or 3×MBTD355N coupled to GSH-Sepharose in binding buffer. […] Laemmli buffer was added to the supernatant to 1×, and the resulting samples analyzed by SDS-PAGE and Western blotting.

- binding to non-methylated peptides ([1]; FIG. 1D): does not bind
- binding to tri-methylated peptides ([1]; FIG. 1D): binds very weakly
- effect of acetylation of a neighboring lysine and phosphorylation of an N-terminally adjacent serine on binding ([1]; FIG. 2E): did not affect
- effect of phosphorylation on a C-terminally adjacent serine on binding to mono- or di-methylated lysine ([1]; FIGS. 2A and 2B): decreased, but did not eliminate
- effect of arginine methylation one or two residues removed from the lysine methylation site on binding ([1]; FIGS. 2C and 2D): little effect
- binding to unmodified peptides, tri-methylated lysine peptides or peptides with other PTMs on peptide array [3]: did not bind
- number of peptides containing mono- and di-methylated lysine bound on peptide array ([3]; array of over 100 unique peptides): 41
B1: 3×MBT: three MBT repeats of L3MBTL1 (amino acids 190-530 of accession NP—056293.4), expressed as GST or Flag fusion; methyl-lysine affinity reagent (protein)
chain: EEWSSSQPATGEKKECWSWESYLEEQKAITAPVSLFQDSQAVTHNKNGFKLGMKLEGIDPQHPSMYFILTVAEVCGYRLRLHFDGYSECHDFWVNANSPDIHPAGWFEKTGHKLQPPKGYKEEEFSWSQYLRSTRAQAAPKHLFVSQSHSPPPLGFQVGMKLEAVDRMNPSLVCVASVTDVVDSRFLVHFDNWDDTYDYWCDPSSPYIHPVGWCQKQGKPLTPPQDYPDPDNFCWEKYLEETGASAVPTWAFKVRPPHSFLVNMKLEAVDRRNPALIRVASVEDVEDHRIKIHFDGWSHGYDFWIDADHPDIHPAGWCSKTGHPLQPPLGPREPSSASPGG
modifications: left off: a dimerising Fc or GST
- co-precipitation with panel of mono- and di-methylated peptides ([1]; histone and nonhistone peptides, FIG. 1C): co-precipitates with thirteen different mono- and di-methylated peptides
- binding to mono- and di-methylated H4K20- and p53K382-containing peptides [2]: binds
- precipitation of 3× Flag-SIRT1 ([4]; 293T cells, only when G9a is co-expressed and K622 is intact): specifically precipitated
- precipitation of methylated proteins H3 and p53 ([4]; HeLa nuclear extract): precipitates
- precipitation of methylated RelA ([4]; nuclear extract of 293T cells co-expressing SETD6 and RelA): precipitates

Reference: US20140274782A1, “AFFINITY REAGENTS AND METHODS FOR DETECTION, PURIFICATION, AND PROTEOMIC ANALYSIS OF METHYLATED PROTEINS” (The Board of Trustees of the Leland Stanford Junior …, priority 2013, published 2014)
